# In patent US20040005550A1, “Methods and compositions useful for targeting activated vitronectin receptor alphavbeta3” (The Scripps Research Institute, priority 1998, published 2004):
# Target: T1, αvβ3 expressed in CHO cells (Homo sapiens, UniProt P05106+P06756)
# T1 construct: cDNAs encoding full-length human αv and β3 were subcloned into pcDNA3 and pCDM8; expressed in transfected cells
# Experiment: Flow cytometry ligand binding to αvβ3-CHO cells
# Conditions: in presence of antibody AP5; 2 mM RGDS, 50 μM cRGDfV, 1 μM Integrilin, 100 μg/ml LM609
# Method: Binding of aPB, WOW-1 Fab and FITC-fibrinogen to cells was assessed by flow cytometry. Typically, cells were cultured overnight in low serum medium (e.g., 0.5% fetal bovine serum), resuspended in incubation buffer at 1-1.5×10^7 cells/ml, and 4-6×10^5 cells were incubated with one of these ligands for 30 min at room temperature in a final volume of 50 μl. […] In some experiments, ligand binding and αvβ3 expression were measured simultaneously by incubation of cells with ligands in the presence of biotin-SSA6 (7 μg/ml), a non-function-blocking anti-β3 monoclonal antibody (Abrams, C., Deng, J., Steiner, B., and Shattil, S. J. (1994) J. Biol. Chem. 269, 18781-18788). After 30 min at room temperature, cells were washed and incubated with phycoerythrin-streptavidin (1:25 final dilution; Molecular Probes) for 20 min on ice. In the case of WOW-1 Fab, an Alexa-conjugated anti-(His)6 monoclonal antibody (Accurate Chemical and Scientific Corp., Westbury, N.Y.) was added at this stage (50 μg/ml). Cells were washed and resuspended in 0.5 ml incubation buffer containing 2 μg/ml propidium iodide (Sigma, St. Louis, Mo.). Ligand binding (FL1 channel) was analyzed immediately on the gated subset of live cells (propidium iodide-negative, FL3) that was strongly positive for αvβ3 expression (FL2). […]
# T1 sequence (P06756 31-889 limits assumed): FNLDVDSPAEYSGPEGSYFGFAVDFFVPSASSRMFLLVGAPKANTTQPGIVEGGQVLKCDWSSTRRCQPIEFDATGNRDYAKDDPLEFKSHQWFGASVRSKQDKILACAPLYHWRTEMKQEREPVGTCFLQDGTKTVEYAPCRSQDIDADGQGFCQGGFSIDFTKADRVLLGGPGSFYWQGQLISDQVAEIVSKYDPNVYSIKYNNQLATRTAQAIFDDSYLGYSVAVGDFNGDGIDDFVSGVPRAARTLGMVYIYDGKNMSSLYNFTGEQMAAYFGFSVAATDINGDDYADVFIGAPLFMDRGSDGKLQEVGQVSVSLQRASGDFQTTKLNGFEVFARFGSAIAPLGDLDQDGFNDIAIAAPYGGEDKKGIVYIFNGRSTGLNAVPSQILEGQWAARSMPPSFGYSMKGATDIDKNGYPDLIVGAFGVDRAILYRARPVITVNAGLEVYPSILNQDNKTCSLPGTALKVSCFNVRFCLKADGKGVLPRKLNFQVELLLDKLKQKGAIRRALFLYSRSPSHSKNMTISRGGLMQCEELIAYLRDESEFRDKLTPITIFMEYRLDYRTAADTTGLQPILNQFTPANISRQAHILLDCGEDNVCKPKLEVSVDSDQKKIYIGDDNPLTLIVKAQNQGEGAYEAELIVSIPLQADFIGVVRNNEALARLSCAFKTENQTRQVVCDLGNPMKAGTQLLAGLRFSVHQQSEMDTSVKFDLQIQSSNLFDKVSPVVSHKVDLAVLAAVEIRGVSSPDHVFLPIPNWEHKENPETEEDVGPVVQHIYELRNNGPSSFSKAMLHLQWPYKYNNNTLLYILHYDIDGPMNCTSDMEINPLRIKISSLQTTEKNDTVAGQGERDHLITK
# T1 sequence (P06756 891-1048 partner limits assumed): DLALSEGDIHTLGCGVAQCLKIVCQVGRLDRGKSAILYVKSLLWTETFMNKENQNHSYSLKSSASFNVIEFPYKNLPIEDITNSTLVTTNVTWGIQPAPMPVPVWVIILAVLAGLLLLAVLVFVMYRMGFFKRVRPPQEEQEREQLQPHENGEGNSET
# T1 sequence (P05106 27-788): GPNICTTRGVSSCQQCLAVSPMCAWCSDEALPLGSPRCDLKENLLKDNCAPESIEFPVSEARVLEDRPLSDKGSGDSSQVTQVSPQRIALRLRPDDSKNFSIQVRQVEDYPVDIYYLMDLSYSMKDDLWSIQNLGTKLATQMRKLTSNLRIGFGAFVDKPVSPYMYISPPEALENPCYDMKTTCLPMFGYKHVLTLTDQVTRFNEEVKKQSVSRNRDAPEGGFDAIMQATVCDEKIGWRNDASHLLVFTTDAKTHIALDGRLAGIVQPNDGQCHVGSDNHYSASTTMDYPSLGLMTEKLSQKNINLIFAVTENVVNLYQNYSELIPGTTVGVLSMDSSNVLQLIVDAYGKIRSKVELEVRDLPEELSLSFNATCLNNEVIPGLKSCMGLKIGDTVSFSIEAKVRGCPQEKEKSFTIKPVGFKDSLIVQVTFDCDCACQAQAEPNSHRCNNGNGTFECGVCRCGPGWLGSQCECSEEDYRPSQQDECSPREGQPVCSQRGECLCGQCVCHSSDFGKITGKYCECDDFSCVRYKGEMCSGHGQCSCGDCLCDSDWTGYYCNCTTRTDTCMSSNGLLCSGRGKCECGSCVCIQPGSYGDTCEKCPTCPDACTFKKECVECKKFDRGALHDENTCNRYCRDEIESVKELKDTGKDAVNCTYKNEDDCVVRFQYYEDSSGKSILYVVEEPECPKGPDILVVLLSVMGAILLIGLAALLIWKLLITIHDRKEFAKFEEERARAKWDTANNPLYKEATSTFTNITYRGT
molecule,measurement,value
"LM609: αvβ3-specific function-blocking monoclonal antibody (antibody, V domains shown) VH: EVQLEESGGGLVKPGGSLKLSCAASGFAFSSYDMSWVRQIPEKRLEWVAKVSSGGGSTYYLDTVQGRFTISRDNAKNTLYLQMSSLNSEDTAMYYCARHNYGSFAYWGQGTLVTVSA VL: ELVMTQTPATLSVTPGDSVSLSCRASQSISNHLHWYQQKSHESPRLLIKYASQSISGIPSRFSGSGSGTDFTLSINSVETEDFGMYFCQQSNSWPHTFGGGTKLEIKRA",inhibition of aPB and WOW-1 Fab binding,more than 70%
